Results as given in US20220332804A1 (CSL INNOVATION, published 2022).

Assays:
[1] = target: T1, human complement C2 (human, UniProt P06681 21-752); experiment: cell-based or functional assay
T1 sequence: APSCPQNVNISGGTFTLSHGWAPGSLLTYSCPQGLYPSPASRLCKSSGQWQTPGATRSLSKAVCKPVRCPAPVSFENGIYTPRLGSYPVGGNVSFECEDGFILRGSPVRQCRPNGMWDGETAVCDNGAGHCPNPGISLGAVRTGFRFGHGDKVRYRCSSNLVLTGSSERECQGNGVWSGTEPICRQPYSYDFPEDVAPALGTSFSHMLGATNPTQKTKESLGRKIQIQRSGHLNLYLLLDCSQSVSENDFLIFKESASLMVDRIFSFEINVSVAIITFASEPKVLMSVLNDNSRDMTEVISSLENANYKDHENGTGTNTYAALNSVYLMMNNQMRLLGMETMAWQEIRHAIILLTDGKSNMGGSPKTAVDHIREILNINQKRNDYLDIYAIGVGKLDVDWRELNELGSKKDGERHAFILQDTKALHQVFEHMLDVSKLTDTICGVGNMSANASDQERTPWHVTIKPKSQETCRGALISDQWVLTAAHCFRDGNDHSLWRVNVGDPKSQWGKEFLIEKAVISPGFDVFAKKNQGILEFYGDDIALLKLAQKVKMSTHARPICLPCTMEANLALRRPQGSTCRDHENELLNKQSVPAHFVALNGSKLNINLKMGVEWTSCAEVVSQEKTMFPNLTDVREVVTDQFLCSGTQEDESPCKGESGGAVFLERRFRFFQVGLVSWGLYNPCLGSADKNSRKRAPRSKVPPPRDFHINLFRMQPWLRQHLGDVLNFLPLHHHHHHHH

[2] = target: T1, human complement C2; experiment: SPR, mAb captured, huC2 analyte, pH 6, steady state
[3] = target: T1, human complement C2; experiment: SPR, mAb captured, huC2 analyte, pH 6
[4] = target: T2, human FcRn/β2m (human, UniProt P55899 24-297; P61769 21-119); experiment: SPR, antibody immobilised, FcRn/β2m analyte, pH 6.0; pH 6.0
T2 construct: Soluble FcRn/β2m injected as analyte over immobilised antibody; also called neonatal Fc receptor
Description: Anti-C2 mAbs (1 μg/mL at pH 5) were immobilized on a carboxylmethyldextran (CM5) sensorchip surface using standard EDC/NHS chemistry. Human and Cyno FcRn/β2m (40 μM) were prepared in running buffer (10 mM HEPES, 150 mM NaCl, 10 mM MES adjusted to either pH 6 or pH 7.3) and injected on the immobilized anti-C2 surface at concentrations ranging from 0.078 to 40 μM, prepared in two-fold dilutions in running buffer. Association and dissociation phases were monitored for 180 and 600 seconds, respectively. […] Double referenced sensorgrams were fitted to either a 1:1 kinetic model (pH 6), including a term for mass transport limitation or to a 1:1 steady state model (pH 7.3) where responses at the end of the association phase were plotted against respective concentrations.
Binding to both human and cynomolgus monkey FcRn was tested using the SPR methods described above.

[5] = target: T3, human C2 L279A (human, UniProt P06681 21-752); experiment: SPR, antibody captured, C2 as analyte;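 note: biacore at 37 °C, anti-C2 mAbs held by immobilised goat anti-human IgG, C2 alanine or serine mutants injected, double-referenced sensorgrams fitted to a 1:1 kinetic or steady-state model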
T3 sequence: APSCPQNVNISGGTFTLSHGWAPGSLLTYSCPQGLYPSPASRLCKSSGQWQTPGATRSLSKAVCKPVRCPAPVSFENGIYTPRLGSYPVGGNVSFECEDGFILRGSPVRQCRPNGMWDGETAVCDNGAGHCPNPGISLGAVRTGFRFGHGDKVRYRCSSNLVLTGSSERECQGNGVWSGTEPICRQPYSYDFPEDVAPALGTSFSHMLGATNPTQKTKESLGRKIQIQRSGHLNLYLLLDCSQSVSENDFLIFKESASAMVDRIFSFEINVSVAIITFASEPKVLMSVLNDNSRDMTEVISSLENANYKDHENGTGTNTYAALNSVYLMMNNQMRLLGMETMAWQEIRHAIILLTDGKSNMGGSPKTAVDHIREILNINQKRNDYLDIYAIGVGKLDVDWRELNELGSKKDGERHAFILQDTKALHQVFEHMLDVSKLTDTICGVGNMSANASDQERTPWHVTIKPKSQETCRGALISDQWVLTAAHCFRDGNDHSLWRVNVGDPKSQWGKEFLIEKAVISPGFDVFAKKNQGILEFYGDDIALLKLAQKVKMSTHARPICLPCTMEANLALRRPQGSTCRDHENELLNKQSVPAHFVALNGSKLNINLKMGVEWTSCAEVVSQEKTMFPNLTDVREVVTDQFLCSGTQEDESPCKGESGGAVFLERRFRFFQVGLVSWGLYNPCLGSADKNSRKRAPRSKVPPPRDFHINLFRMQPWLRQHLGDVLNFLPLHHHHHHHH

[6] = target: T4, human C2 T317A (human, UniProt P06681 21-752); experiment: SPR, antibody captured, C2 as analyte;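 note: biacore at 37 °C, anti-C2 mAbs held by immobilised goat anti-human IgG, C2 alanine or serine mutants injected, double-referenced sensorgrams fitted to a 1:1 kinetic or steady-state model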
T4 sequence: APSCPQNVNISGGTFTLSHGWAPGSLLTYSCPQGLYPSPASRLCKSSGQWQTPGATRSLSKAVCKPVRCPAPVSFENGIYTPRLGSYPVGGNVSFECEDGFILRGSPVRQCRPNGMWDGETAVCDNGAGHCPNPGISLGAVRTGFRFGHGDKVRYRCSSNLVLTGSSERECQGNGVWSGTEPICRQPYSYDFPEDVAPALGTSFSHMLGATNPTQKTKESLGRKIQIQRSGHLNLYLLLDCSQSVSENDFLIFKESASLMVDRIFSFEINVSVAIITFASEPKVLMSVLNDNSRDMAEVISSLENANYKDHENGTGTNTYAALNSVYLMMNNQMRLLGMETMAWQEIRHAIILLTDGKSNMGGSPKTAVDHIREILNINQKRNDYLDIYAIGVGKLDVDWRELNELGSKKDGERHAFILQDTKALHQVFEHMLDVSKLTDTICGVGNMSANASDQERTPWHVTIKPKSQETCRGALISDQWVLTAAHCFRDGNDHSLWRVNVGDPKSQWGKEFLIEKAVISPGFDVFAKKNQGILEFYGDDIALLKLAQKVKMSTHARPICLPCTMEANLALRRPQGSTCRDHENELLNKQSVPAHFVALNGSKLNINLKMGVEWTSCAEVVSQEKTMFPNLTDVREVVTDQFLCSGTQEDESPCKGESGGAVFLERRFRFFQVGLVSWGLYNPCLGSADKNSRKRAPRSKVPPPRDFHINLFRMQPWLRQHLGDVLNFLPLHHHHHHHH

T2 sequence (P55899 24-297 limits assumed, chain 1 of 2): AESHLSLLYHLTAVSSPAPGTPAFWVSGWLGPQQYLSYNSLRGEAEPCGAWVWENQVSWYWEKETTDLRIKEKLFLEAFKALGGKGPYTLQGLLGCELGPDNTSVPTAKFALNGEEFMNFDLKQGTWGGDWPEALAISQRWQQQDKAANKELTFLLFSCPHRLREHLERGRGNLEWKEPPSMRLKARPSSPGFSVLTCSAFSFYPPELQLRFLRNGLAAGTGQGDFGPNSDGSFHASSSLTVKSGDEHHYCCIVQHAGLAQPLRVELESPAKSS
T2 sequence (P61769 21-119 limits assumed, chain 2 of 2): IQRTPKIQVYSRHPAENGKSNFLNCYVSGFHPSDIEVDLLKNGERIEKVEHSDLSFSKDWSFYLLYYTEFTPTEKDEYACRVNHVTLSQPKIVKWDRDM

B1: RF16-214 (antibody, V domains shown)
VH: EVQLLESGGGLVQPGGSLRLSCAASGFTFSWYQMMWVRQAPGKGLEWVSRIYPSGGGTAYADSVKGRFTISRDNSKNTLYLQMNSLRAEDTAVYYCARDAGYGDNWGQGTLVTVSS
VL: QSALTQPPSVSVSPGQTASITCSGDKLGEKYASWYQQKAGQSPVMVIYQDRKRPSGIPERFSGSNSGNTATLTISGTQAMDEADYYCQAWDTRAVVFGGGTKLTVLG
In the case of B1, the “IC50, inhibition of human classical complement pathway (Wieslab assay)” value [1] is reported as 18.6 nM and the “IC50, inhibition of human lectin complement pathway (Wieslab assay)” value [1] is reported as 7.69 nM.

B2: RF16-226 (antibody)
heavy: not shown
light: SYELTQPPSVSVSPGQTARITCSGDALTSKYVAWYQQKSGLAPLLVIYEDTRRPSGIPAKFSGSSSGSVATLTISGAHGDDEADYYCYSTDASGHQRVFGGGTKLTVLSQPKAAPSVTLFPPSSEELQANKATLVCLISDFYPGAVTVAWKADGSPVKAGVETTKPSKQSNNKYAASSYLSLTPEQWKSHRSYSCQVTHEGSTVEKTVAPTECS
For B2, the “IC50, inhibition of human classical complement pathway (Wieslab assay)” value [1] was 12.5 nM, the “IC50, inhibition of human lectin complement pathway (Wieslab assay)” value [1] was 5.6 nM and the Kd [2] was about 95 nM. It also gave a Kd [3] of about 80 nM.

B3: RF16-226 (antibody, human IgG4 S228P, lambda)
heavy: not shown
light: SYELTQPPSVSVSPGQTARITCSGDALTSKYVAWYQQKSGLAPLLVIYEDTRRPSGIPAKFSGSSSGSVATLTISGAHGDDEADYYCYSTDASGHQRVFGGGTKLTVLSQPKAAPSVTLFPPSSEELQANKATLVCLISDFYPGAVTVAWKADGSPVKAGVETTKPSKQSNNKYAASSYLSLTPEQWKSHRSYSCQVTHEGSTVEKTVAPTECS
notes: pH-dependent anti-C2 antibody from a phage display library; also called WT
Work on B3 yielded a Kd [4] of 3800 nM.

B4: RF16-242 (antibody, human IgG4 S228P, lambda, V domains shown)
VH: EVQLLQSGAEVKKPGESLKISCKGSGYSFTSYWIGWVRQMPGKGLEWMGIIYPGDSDTRYSPSFQGQVTISADKSISTAYLQWSSLKASDTAMYYCARRGHYGDYFDYWGQGTLVTVSS
VL: SYELTQPPSVSVSPGQTARITCSGDALPKKYAYWYHQKSGQAPVLVIYEDRRRPSEIPERFSGSSSGTMATLTITGAQVEDEGVYFCYSRDRAGNQRVFGGGTQLTVLG
notes: pH-dependent anti-C2 antibody from a phage display library
For B4, the Kd [5] was 49.2 nM and the Kd [6] was 5.9 nM.
